Measured values as given in patent US20220048967A1 (published 2022).
Numbered stars: 1 amine (or outer) side, 2 acyl side, 3 side chain; on linkers, the order of the positions; unused ones are H or OH. Square brackets hold non-standard residues; d marks the D form. Side chains are listed from the residue outwards. Ends that are not written are not given here. * marks the point of attachment. C20 diacid = O=C(O)CCCCCCCCCCCCCCCCCCC(=O)*; C18 diacid = O=C(O)CCCCCCCCCCCCCCCCC(=O)*; γGlu = O=C(O)[C@H](CCC(=O)[*:2])N[*:1]; AEEA = NCCOCCOCC(=O)O; Aib = CC(C)(N)C(=O)O

biological target: human GLP-1 receptor (human, UniProt P43220 24-463); assay: cell-based or functional assay

| Binder | hGLP1R GTPgS % Top | hGLP1R GTPgS Rel EC50 |
| --- | --- | --- |
| YXEGTXTSDYSIXLDXKAQXEFIXYLIEGGPSSGAPPPS (Aib2, αMeF(2F)6, αMeL13, Orn16, K17 conjugated to (2-[2-(2-Amino-ethoxy)-ethoxy]-acetyl)2-(γ-Glu)-CO-(CH2)18-CO2H, Aib20, D-Glu24, C-terminal amide (NH2)) [Example 3] | 95.4% | 421 pM |
| YXEGTXTSDVSIXLDXKAQXEFIXXLIEGGPSSGAPPPS (Aib2, αMeF(2F)6, αMeL13, Orn16, K17 conjugated to (2-[2-(2-Amino-ethoxy)-ethoxy]-acetyl)2-(γ-Glu)-CO-(CH2)16-CO2H, Aib20, D-Glu24, αMeY25, C-terminal amide (NH2)) [Example 5] | 91.3% | 196 pM |
| Y[Aib]EGTFTSDYSILLDKK([AEEA-AEEA-γGlu-C18 diacid])AQ[Aib]AFVEYLIEGGPSSG-NH2 (N-terminus assumed; SMILES CC[C@H](C)[C@H](NC(=O)[C@H](CC(C)C)NC(=O)[C@H](Cc1ccc(O)cc1)NC(=O)[C@H](CCC(=O)O)NC(=O)[C@@H](NC(=O)[C@H](Cc1ccccc1)NC(=O)[C@H](C)NC(=O)C(C)(C)NC(=O)[C@H](CCC(N)=O)NC(=O)[C@H](C)NC(=O)[C@H](CCCCNC(=O)COCCOCCNC(=O)COCCOCCNC(=O)CC[C@H](NC(=O)CCCCCCCCCCCCCCCCC(=O)O)C(=O)O)NC(=O)[C@H](CCCCN)NC(=O)[C@H](CC(=O)O)NC(=O)[C@H](CC(C)C)NC(=O)[C@H](CC(C)C)NC(=O)[C@@H](NC(=O)[C@H](CO)NC(=O)[C@H](Cc1ccc(O)cc1)NC(=O)[C@H](CC(=O)O)NC(=O)[C@H](CO)NC(=O)[C@@H](NC(=O)[C@H](Cc1ccccc1)NC(=O)[C@@H](NC(=O)CNC(=O)[C@H](CCC(=O)O)NC(=O)C(C)(C)NC(=O)[C@@H](N)Cc1ccc(O)cc1)[C@@H](C)O)[C@@H](C)O)[C@@H](C)CC)C(C)C)C(=O)N[C@@H](CCC(=O)O)C(=O)NCC(=O)NCC(=O)N1CCC[C@H]1C(=O)N[C@@H](CO)C(=O)N[C@@H](CO)C(=O)NCC(N)=O) [Example 298] | 57.3% | 1030 pM |
| YXEGTFTSDYSIXLDKKAQXEFIEYLIEGGPSSG (Aib2, αMeL13, K17 conjugated to (2-[2-(2-Amino-ethoxy)-ethoxy]-acetyl)2-(γ-Glu)-CO-(CH2)16-CO2H, Aib20, C-terminal amide (NH2)) [Example 304] | 77.1% | 561 pM |
| YXEGTFTSDYSIXLDKKAQXEFIEYLIAGGPSSG (Aib2, αMeL13, K17 conjugated to (2-[2-(2-Amino-ethoxy)-ethoxy]-acetyl)2-(γ-Glu)-CO-(CH2)16-CO2H, Aib20, C-terminal amide (NH2)) [Example 306] | 76.1% | 378 pM |
| Y[Aib]EGTFTSDYSILLDKK([AEEA-AEEA-γGlu-C20 diacid])AQ[Aib]AFIEYLIAGGPSSG-NH2 (N-terminus assumed; SMILES CC[C@H](C)[C@H](NC(=O)[C@H](CC(C)C)NC(=O)[C@H](Cc1ccc(O)cc1)NC(=O)[C@H](CCC(=O)O)NC(=O)[C@@H](NC(=O)[C@H](Cc1ccccc1)NC(=O)[C@H](C)NC(=O)C(C)(C)NC(=O)[C@H](CCC(N)=O)NC(=O)[C@H](C)NC(=O)[C@H](CCCCNC(=O)COCCOCCNC(=O)COCCOCCNC(=O)CC[C@H](NC(=O)CCCCCCCCCCCCCCCCCCC(=O)O)C(=O)O)NC(=O)[C@H](CCCCN)NC(=O)[C@H](CC(=O)O)NC(=O)[C@H](CC(C)C)NC(=O)[C@H](CC(C)C)NC(=O)[C@@H](NC(=O)[C@H](CO)NC(=O)[C@H](Cc1ccc(O)cc1)NC(=O)[C@H](CC(=O)O)NC(=O)[C@H](CO)NC(=O)[C@@H](NC(=O)[C@H](Cc1ccccc1)NC(=O)[C@@H](NC(=O)CNC(=O)[C@H](CCC(=O)O)NC(=O)C(C)(C)NC(=O)[C@@H](N)Cc1ccc(O)cc1)[C@@H](C)O)[C@@H](C)O)[C@@H](C)CC)[C@@H](C)CC)C(=O)N[C@@H](C)C(=O)NCC(=O)NCC(=O)N1CCC[C@H]1C(=O)N[C@@H](CO)C(=O)N[C@@H](CO)C(=O)NCC(N)=O) [Example 317] | 53.7% | 536 pM |
| Y[Aib]EGTFTSDYSILLDKK([AEEA-AEEA-γGlu-C20 diacid])AQ[Aib]EFIEYLIAGGPSSG-NH2 (N-terminus assumed; SMILES CC[C@H](C)[C@H](NC(=O)[C@H](CC(C)C)NC(=O)[C@H](Cc1ccc(O)cc1)NC(=O)[C@H](CCC(=O)O)NC(=O)[C@@H](NC(=O)[C@H](Cc1ccccc1)NC(=O)[C@H](CCC(=O)O)NC(=O)C(C)(C)NC(=O)[C@H](CCC(N)=O)NC(=O)[C@H](C)NC(=O)[C@H](CCCCNC(=O)COCCOCCNC(=O)COCCOCCNC(=O)CC[C@H](NC(=O)CCCCCCCCCCCCCCCCCCC(=O)O)C(=O)O)NC(=O)[C@H](CCCCN)NC(=O)[C@H](CC(=O)O)NC(=O)[C@H](CC(C)C)NC(=O)[C@H](CC(C)C)NC(=O)[C@@H](NC(=O)[C@H](CO)NC(=O)[C@H](Cc1ccc(O)cc1)NC(=O)[C@H](CC(=O)O)NC(=O)[C@H](CO)NC(=O)[C@@H](NC(=O)[C@H](Cc1ccccc1)NC(=O)[C@@H](NC(=O)CNC(=O)[C@H](CCC(=O)O)NC(=O)C(C)(C)NC(=O)[C@@H](N)Cc1ccc(O)cc1)[C@@H](C)O)[C@@H](C)O)[C@@H](C)CC)[C@@H](C)CC)C(=O)N[C@@H](C)C(=O)NCC(=O)NCC(=O)N1CCC[C@H]1C(=O)N[C@@H](CO)C(=O)N[C@@H](CO)C(=O)NCC(N)=O) [Example 318] | 58.4% | 415 pM |
